# From article PMC12781765, “Atypical GNAO1 variants in severe childhood speech disorders: clinical, genetic, and molecular insights” (Molecular Autism, 2025)
# T1: GFP-RGS19 (UniProt P49795 1-217)
# T1 construct: RGS19, regulator of G protein signaling 19; Plasmid published earlier; also called GFP-tagged RGS19 construct; source: HEK293T, transfected, in lysate
# T1 sequence (looked up): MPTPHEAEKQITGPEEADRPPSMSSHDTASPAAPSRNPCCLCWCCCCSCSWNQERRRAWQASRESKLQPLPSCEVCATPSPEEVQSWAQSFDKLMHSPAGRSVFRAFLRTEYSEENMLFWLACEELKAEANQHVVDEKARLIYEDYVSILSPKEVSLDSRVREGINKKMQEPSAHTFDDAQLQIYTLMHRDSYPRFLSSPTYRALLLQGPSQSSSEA
# Molecular target: T1, GFP-RGS19
# Assay: co-IP; HEK293T co-transfected with the GFP-tagged construct and non-tagged Gαo variants; IP of the GFP fusion with a recombinant GST-tagged nanobody against GFP; Western blot with antibodies against Gαo and GFP; blots quantified with ImageJ
# Settings: partners not purified
binder,measurement,value
"Gαo L39_G40insV (non-tagged) (natural protein, human, UniProt P09471-1 1-354, looked up, Gαo (GNAO1) with the patient variant p.Leu39_Gly40insVal (c.116_118dup), introduced by site-directed mutagenesis into the non-tagged Gαo plasmid; De novo patient variant; also called p.Leu39_Gly40insVal; source: HEK293T, transfected (in lysate for co-IP; in cells for BRET)) MGCTLSAEERAALERSKAIEKNLKEDGISAAKDVKLLLLVGAGESGKSTIVKQMKIIHEDGFSGEDVKQYKPVVYSNTIQSLAAIVRAMDTLGIEYGDKERKADAKMVCDVVSRMEDTEPFSAELLSAMMRLWGDSGIQECFNRSREYQLNDSAKYYLDSLDRIGAADYQPTEQDILRTRVKTTGIVETHFTFKNLHFRLFDVGGQRSERKKWIHCFEDVTAIIFCVALSGYDQVLHEDETTNRMHESLMLFDSICNNKFFIDTSIILFLNKKDLFGEKIKKSPLTICFPEYTGPNTYEDAAAYIQAQFESKNRSPNKEIYCHMTCATDTNNIQVVFDAVTDIIIANNLRGCGLY",percent of the binding of wild-type,< 15%
